Experimental data: PMC11206591, “Novel Ultrasound-Responsive Amyloid Formulation” (Pharmaceuticals, 2024)

Biological target: the molecule itself
Assay: thioflavin T (ThT) fluorescence; 200 µM peptide in 100 mM ammonium acetate buffer pH 7, 37 °C in a thermomixer, read at 24 h and 48 h; with and without Pluronic F127 0.01% and Dox; ThT 50 µM in 20 mM Tris pH 8, 440/482 nm

B1: Receptor-interacting protein RIP 3 peptide NIYNCSGVQVGD (peptide)
peptide: NIYNCSGVQVGD
notes: The amyloids were formed from the peptide alone and also with Pluronic F127 (0.01% w/v) and/or Doxorubicin; also called 12-amino-acid peptide from the amyloidogenic region of RIP3; source: synthetic peptide, custom-synthesized from Genscript
B1: binds.
